For the data set, the target named is SpyCas9 (Streptococcus pyogenes, UniProt Q99ZW2 1-1368). Nature of the data set: EMSA.
SpyCas9, sequence (Q99ZW2 whole entry): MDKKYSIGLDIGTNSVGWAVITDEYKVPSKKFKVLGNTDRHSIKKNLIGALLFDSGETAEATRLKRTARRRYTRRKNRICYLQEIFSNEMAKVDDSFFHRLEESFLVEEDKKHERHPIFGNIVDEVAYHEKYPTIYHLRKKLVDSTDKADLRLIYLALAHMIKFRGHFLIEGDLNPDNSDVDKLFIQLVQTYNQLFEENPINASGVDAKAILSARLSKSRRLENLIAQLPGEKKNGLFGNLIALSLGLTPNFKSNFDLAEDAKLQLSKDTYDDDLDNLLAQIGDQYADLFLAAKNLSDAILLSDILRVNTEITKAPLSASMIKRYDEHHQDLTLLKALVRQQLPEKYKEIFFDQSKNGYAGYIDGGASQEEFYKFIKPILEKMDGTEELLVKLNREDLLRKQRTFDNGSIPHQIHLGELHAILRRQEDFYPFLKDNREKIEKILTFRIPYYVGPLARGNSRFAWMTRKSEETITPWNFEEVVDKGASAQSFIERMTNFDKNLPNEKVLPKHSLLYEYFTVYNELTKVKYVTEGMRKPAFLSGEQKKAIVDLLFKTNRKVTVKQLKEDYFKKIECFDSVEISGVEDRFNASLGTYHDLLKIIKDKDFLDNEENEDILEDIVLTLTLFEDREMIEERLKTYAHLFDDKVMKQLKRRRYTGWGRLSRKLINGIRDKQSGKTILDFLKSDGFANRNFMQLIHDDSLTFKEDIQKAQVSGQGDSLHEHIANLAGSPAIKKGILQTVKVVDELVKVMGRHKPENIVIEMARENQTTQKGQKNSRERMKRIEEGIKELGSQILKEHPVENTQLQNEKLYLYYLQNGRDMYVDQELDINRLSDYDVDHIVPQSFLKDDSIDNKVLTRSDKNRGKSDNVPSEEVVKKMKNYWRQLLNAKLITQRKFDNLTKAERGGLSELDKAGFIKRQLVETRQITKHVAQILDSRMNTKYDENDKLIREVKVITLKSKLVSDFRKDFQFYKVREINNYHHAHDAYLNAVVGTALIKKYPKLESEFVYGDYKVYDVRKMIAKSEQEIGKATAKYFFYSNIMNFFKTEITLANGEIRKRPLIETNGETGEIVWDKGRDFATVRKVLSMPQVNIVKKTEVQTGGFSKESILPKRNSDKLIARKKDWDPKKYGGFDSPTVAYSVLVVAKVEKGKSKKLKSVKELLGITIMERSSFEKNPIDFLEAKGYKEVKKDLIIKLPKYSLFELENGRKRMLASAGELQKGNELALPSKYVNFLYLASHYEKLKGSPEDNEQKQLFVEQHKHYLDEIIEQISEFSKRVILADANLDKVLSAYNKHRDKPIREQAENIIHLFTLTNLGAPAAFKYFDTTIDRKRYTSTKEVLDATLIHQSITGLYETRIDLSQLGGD

B1: sgRNA (20 nt spacer) + FAM target DNA 38 bp (mixed)
DNA 1: ATTGCCGTCAGGAAATTAGGTGCGCTTAGCTGGTATTG
DNA 2: CAATACCAGCTAAGCGCACCTAATTTCCTGACGGCAAT
Regarding B1, the binding result was “binds”.
